Measured values reported in US20180339041A1 (Kyowa Kirin, published 2018).

T1: human Sky forcedly expressed on HEK293F reporter cells (human, UniProt Q06418 41-890)
T1 sequence (looked up): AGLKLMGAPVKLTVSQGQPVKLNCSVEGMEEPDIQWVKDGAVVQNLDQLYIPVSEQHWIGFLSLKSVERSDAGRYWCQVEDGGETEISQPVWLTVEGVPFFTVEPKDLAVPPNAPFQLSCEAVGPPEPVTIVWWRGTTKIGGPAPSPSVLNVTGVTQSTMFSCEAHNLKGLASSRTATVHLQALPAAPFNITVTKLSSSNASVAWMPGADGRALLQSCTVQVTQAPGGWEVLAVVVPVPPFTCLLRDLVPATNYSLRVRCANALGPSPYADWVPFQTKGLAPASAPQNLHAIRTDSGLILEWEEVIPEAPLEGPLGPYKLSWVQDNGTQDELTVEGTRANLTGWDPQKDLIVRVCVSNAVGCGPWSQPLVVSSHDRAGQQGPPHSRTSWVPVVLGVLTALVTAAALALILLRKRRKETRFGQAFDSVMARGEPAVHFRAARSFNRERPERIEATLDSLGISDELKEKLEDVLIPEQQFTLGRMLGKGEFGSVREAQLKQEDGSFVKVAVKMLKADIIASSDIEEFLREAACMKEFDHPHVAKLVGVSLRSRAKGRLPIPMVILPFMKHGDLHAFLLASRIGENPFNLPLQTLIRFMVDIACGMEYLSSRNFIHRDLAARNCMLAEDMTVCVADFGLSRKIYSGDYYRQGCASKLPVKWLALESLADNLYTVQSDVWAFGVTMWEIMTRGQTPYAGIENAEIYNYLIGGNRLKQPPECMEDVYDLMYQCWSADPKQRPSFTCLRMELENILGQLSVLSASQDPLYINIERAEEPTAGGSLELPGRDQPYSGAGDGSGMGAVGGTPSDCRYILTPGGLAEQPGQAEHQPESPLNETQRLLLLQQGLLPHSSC

T2: human Mer forcedly expressed on HEK293F reporter cells (human, UniProt Q12866 21-999)
T2 sequence (looked up): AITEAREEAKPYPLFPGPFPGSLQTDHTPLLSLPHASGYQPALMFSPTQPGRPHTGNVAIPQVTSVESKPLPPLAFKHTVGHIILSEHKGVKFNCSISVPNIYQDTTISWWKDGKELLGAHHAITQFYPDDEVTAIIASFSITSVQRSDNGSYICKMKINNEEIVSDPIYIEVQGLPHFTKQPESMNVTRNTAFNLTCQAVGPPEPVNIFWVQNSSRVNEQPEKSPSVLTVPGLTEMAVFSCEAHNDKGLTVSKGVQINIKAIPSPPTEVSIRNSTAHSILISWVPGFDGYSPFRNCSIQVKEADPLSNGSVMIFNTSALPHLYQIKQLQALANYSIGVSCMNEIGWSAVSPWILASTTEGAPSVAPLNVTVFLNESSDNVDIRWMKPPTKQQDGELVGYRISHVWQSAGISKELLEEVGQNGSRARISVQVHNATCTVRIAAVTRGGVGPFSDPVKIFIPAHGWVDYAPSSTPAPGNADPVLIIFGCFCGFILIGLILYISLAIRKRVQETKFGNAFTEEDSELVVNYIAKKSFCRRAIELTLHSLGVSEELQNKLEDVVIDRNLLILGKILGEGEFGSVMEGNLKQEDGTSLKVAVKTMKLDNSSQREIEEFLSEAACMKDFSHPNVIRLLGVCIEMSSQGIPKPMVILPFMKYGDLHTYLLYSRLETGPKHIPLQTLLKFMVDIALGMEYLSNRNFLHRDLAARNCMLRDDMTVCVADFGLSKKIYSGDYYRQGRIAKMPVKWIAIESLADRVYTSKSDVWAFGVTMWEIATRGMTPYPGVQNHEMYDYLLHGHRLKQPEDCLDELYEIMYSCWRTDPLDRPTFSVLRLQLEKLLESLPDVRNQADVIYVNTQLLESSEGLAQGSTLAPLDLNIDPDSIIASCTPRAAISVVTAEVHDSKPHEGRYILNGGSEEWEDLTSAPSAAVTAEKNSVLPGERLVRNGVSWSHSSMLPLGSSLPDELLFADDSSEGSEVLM

B1: C-terminally FLAG-tagged human Gas6 recombinant protein (hGas6-F) (ligand, not shown: small tags and cut ends)
chain: ALLPAREATQFLRPRQRRAFQVFEEAKQGHLERECVEELCSREEAREVFENDPETDYFYPRYLDCINKYGSPYTKNSGFATCVQNLPDQCTPNPCDRKGTQACQDLMGNFFCLCKAGWGGRLCDKDVNECSQENGGCLQICHNKPGSFHCSCHSGFELSSDGRTCQDIDECADSEACGEARCKNLPGSYSCLCDEGFAYSSQEKACRDVDECLQGRCEQVCVNSPGSYTCHCDGRGGLKLSQDMDTCEDILPCVPFSVAKSVKSLYLGRMFSGTPVIRLRFKRLQPTRLVAEFDFRTFDPEGILLFAGGHQDSTWIVLALRAGRLELQLRYNGVGRVTSSGPVINHGMWQTISVEELARNLVIKVNRDAVMKIAVAGDLFQPERGLYHLNLTVGGIPFHEKDLVQPINPRLDGCMRSWNWLNGEDTTIQETVKVNTRMQCFSVTERGSFYPGSGFAFYSLDYMRTPLDVGTESTWEVEVVAHIRPAADTGVLFALWAPDLRAVPLSVALVDYHSTKKLKKQLVVLAVEHTALALMEIKVCDGQEHVVTVSLRDGEATLEVDGTRGQSEVSAAQLQERLAVLERHLRSPVLTFAGGLPDVPVTSAPVTAFYRGCMTLEVNRRLLDLDEAAYKHSDITAHSCPPVEPAAA
modifications: gamma-carboxylated glutamic acid residues in the Gla domain (producer cells co-express rat VKOR and human GGCX); positions not given

What was measured:
[1] = target: T1, human Sky forcedly expressed on HEK293F …; experiment: cell-based or functional assay
[2] = target: T2, human Mer forcedly expressed on HEK293F …; experiment: cell-based or functional assay
[3] = target: B1; experiment: competitive ELISA, inhibition of hGas6-F binding to immobilised hAxl-hFc
[4] = target: B1; experiment: SPR Biacore T100, captured antibody, Gas6 analyte, retest
Experimental: (§1) An anti-human IgG antibody was immobilized on a CM5 sensor chip (manufactured by GE Healthcare Japan Corp.) using Human Antibody Capture Kit (manufactured by GE Healthcare Japan Corp.) according to the attached manual. Each test antibody adjusted to 1 μg/mL was added for 10 seconds at a flow rate of 10 μL/min to flow cells. […] The measurement was performed by the […] method. The obtained sensorgram was analyzed using Bia Evaluation Software (manufactured by GE Healthcare Japan Corp.), and the kinetic constant of each antibody was calculated.
In this retest, unlike the test mentioned above, the number of antibodies to be measured and variations in the concentration of the analyte were decreased, and the assay was conducted for a short time (within several hours), instead of sufficiently leaving standing the analyte added to the vial. […] This minimizes the adsorption of the analyte to the vial and permits more accurate calculation of ka and KD values than that in the test mentioned above.

[5] = target: B1; experiment: ELISA, hGas6-F captured by anti-FLAG, anti-human IgG-HRP
Experimental: First, 2 μg/mL anti-FLAG antibody [Monoclonal ANTI-FLAG M2 antibody produced in mouse (manufactured by Sigma-Aldrich Co. LLC) diluted with PBS (manufactured by Nacalai Tesque, Inc.)] was dispensed at 50 μL/well to a 96-well plate for ELISA (manufactured by Nalge Nunc International), and the plate was left standing overnight at 4° C. for adsorption. After removal of the immobilization solution, 1% BSA-PBS (manufactured by Nacalai Tesque, Inc.) was added thereto at 300 μL/well, and the plate was left standing at room temperature for 1 hour for blocking and washed five times with Tween 20-PBS (manufactured by Wako Pure Chemical Industries Ltd.).
In order to reduce the backgrounds of measurement values, the diluted secondary antibody solution was mixed with 50 μg/mL of an anti-DNP mouse IgG1 antibody and incubated at room temperature for 1 hour for use.

[6] = target: B1; experiment: SPR Biacore T100, captured antibody, Gas6 analyte, first test
[7] = target: B1; experiment: SPR Biacore T100, captured antibody, Gas6 analyte, first test; reference line A-01 printed again at the head of the LV5 HV-series block (r24), same as r7
Experimental: as §1

| luminescence intensity (Egr1-luciferase reporter, HEK293F forced to express human Sky) [1] | luminescence intensity (Egr1-luciferase reporter, HEK293F forced to express human Mer) [2] | IC50 [3] | Kd [4] | koff [4] | kon [4] | EC50 [5] | Kd [6] | koff [6] | kon [6] | kon [7] | Binder |
| --- | --- | --- | --- | --- | --- | --- | --- | --- | --- | --- | --- |
| ~3 fold | ~3 fold | – | – | – | – | – | – | – | – | – | B1 |
| – | – | 0.0218 µg/mL | 0.73 nM | 0.000135 s⁻¹ | 186000 M⁻¹ s⁻¹ | 0.0113 µg/mL | < 1.87 nM | 0.000156 s⁻¹ | > 83700 M⁻¹ s⁻¹ | > 83700 M⁻¹ s⁻¹ | KM5320 chimeric antibody (antibody, V domains shown, also called KM5320 chimera; A-01) VH: QIQLVQSGPELKKPGETVKISCKASGYTFTNYGMNWVKQAPGKGLKWMGWINTETGEPTYSDDFKGRFAFSLETSATTAYLQINNLRNEDMATYFCAREDGYYGTLDYWGQGTSVTVSS VL: SIVMTQTPKFLLVSAGDRVTITCKASQSVSNDVAWYQQKPGQSPKVLIYYASNRYTGVPDRFTGSGYGTDFTFTISTVQAEDLAVYFCQQDYSSPWTFGGGTKLEIK |
